Results published in patent US20260000752A1 (AKSTON BIOSCIENCES, published 2026).

Target: T1, recombinant human Fc(gamma)RI, biotinylated (R&D Systems) (human, UniProt P12314 16-288)
T1 construct: also called rhFc(gamma) receptor I; Fc(gamma) Receptor I
Assay: ELISA pH 7.4; insulin-Fc coated, biotinylated rhFc(gamma)RI titrated (Example 51)

T1 sequence (P12314 16-288 limits assumed): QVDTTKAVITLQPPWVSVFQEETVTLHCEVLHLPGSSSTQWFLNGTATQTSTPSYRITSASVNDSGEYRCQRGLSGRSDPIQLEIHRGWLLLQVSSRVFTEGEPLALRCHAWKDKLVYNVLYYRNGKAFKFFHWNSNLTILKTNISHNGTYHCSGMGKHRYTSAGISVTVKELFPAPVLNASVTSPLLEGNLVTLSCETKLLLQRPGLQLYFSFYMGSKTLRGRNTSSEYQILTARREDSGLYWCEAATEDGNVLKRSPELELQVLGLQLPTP

B1: insulin-Fc fusion protein of SEQ ID NO: 29 (Fc fusion)
chain: FVNQHLCGSHLVEALELVCGERGFHYGGGGGGSGGGGGIVEQCCTSTCSLDQLENYCGGGGGQGGGGQGGGGQGGGGGDCPKCPAPEMLGGPSVFIFPPKPKDTLLIARTPEVTCVVVDLDPEDPEVQISWFVDGKQMQTAKTQPREEQFNGTYRVVSVLPIGHQDWLKGKQFTCKVNNKALPSPIERTISKARGQAHQPSVYVLPPSREELSKNTVSLTCLIKDFFPPDIDVEWQSNGQQEPESKYRTTPPQLDEDGSYFLYSKLSVDKSRWQRGDTFICAVMHEALHNHYTQESLSHSPG
binding result: binds
